Assay results: patent publication US20050276784A1

Columns and labels:
[1] = biological target: c-kit receptor (wild type), on mast cells and on NIH ψ2 cells expressing the c-kit cDNA (mouse) (UniProt P05532)
[2] = biological target: c-kit receptor of the W^v allele, on W^v/W^v mast cells (mouse) (UniProt P05532)

half maximal proliferation of +/+ mast cells (^3H-thymidine incorporation) (ng of protein in 0.2 ml) [1]: 0.5 | proliferation of mast cells (^3H-thymidine incorporation) (% of +/+ values) [2]: 10
Substance: KL (c-kit ligand), soluble form purified from conditioned medium of Balb/3T3 fibroblasts (from UniProt P20826)
